We go through two molecules from patent US9429584B2, “Antibody against insoluble fibrin” (National Cancer Center, priority 2013, dated 2016).

The target in the assay is T1, insoluble fibrin (Homo sapiens, UniProt P02675+P02679).
T1 sequence (P02675 45-491 limits assumed): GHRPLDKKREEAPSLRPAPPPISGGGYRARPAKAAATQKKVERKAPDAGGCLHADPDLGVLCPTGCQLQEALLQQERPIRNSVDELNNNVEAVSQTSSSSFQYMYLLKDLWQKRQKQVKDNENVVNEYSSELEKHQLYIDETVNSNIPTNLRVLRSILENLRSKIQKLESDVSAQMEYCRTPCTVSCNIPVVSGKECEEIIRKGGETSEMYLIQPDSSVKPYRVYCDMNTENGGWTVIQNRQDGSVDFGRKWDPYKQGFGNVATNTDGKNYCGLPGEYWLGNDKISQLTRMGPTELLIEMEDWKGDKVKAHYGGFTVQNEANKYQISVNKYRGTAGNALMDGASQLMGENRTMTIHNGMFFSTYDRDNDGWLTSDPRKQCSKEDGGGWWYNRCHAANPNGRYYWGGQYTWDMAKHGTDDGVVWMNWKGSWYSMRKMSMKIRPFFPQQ
T1 sequence (P02679 27-453): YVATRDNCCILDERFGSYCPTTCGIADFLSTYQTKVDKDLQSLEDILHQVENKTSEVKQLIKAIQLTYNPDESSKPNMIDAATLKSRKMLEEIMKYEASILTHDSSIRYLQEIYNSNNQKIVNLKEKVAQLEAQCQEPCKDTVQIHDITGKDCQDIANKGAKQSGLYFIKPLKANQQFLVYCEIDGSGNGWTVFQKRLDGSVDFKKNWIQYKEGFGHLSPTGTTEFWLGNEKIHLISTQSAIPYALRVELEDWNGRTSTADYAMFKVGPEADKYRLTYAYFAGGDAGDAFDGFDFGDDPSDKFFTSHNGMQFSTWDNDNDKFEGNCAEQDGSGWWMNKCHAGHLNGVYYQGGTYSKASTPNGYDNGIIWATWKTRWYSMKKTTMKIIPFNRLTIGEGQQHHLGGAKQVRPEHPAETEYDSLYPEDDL
In words: ELISA method of Example 2, fibrin plate. The assay is classed as binding. Particulars: antibody 10 μg/mL. How it is done: Each of the antibody solutions (100 μL each) at 10 μg/mL was added to the fibrin plate and the fibrinogen plate, and allowed to stand at room temperature for 1 hour. After washing with TBS-T, Bethyl Anti-Human IgG-HRP (×1000 dilution) or Bethyl Anti-Mouse IgG-HRP (×10000 dilution) was added as a secondary antibody. Then, after washing with TBS-T, colorimetry was conducted with OPD for 10 minutes, and measurement was conducted at an absorption wavelength of 492 nm.

B1: 34-105 antibody: monoclonal anti-γ chain antibody produced by hybridoma 34-105; L chain variable region SEQ ID NO: 3, H chain variable region SEQ ID NO: 7 (antibody, listed as Mus musculus, V domains shown)
VH: EVKLQESGGGLVKPGGSLKLSCAASGFTFSSYAMSWVRQTPEKRLEWVAAISSGGTTYYPDSVKGRFTISRDNARNILYLQMSSLRSEDTAMYYCVRGGTIGAYWGQGTLVTVSA
VL: DIVITQSPASLAVSLGQRATISYRASKSVSTSGYSYMHWNQQKPGQPPRLLIYLVSNLESGVPARFSGSGSGTDFTLNIHPVEEEDAATYYCQHIRELTRSEGGPSWK
modifications: SITE (1)..(115) Variable Region of Heavy Chain (34-105); SITE (1)..(108) Variable Region of Light Chain(34-105)
As to B1, the “affinity for insoluble fibrin (absorbance at 492 nm) relative to that of the 102-10 antibody” value amounted to 16 times and the “ratio of the affinity for insoluble fibrin to the affinity for fibrinogen (absorbance at 492 nm)” value was determined as 25 times.

B2: Fib-0355 antibody: monoclonal anti-β chain antibody produced by hybridoma Fib-0355; L chain variable region SEQ ID NO: 11, H chain variable region SEQ ID NO: 15 (antibody, listed as Mus musculus, V domains shown)
VH: GPELKKPGETVKISCKASGYTFTNYGMNWVKQAPGKGLKWMGWINTNTGEPTYAEEFKGRFAFSLETSASTAYLQINNLKNEDTATYFCARLLDYWGQGTTLTVSS
VL: PSSLAVSAGEKVTMSCKSSQSVLYSSNQKNYLAWYQQKPGQSPKLLIYWASTRESGVPDRFTGSGSGTDFTLTISSVQAEDLAVYYCQQYLSSYTFGG
modifications: SITE (1)..(106) Variable Region of Heavy Chain (Fib-0355); SITE (1)..(98) Variable Region of Light Chain(Fib-0355)
On to B2, for which the “affinity for insoluble fibrin (absorbance at 492 nm) relative to that of the 102-10 antibody” value amounted to 12 times.
